Laboratory results as given in US20220127354A1 (Amgen, published 2022).
Residue numbers refer to the chain shown, from its start. Names may count otherwise.

T1: Cyno Cadherin-19 (cynomologous monkey (Macaca …, UniProt Q9H159 44-772 (human entry)))
T1 construct: also called cynomologous monkey CDH-19
T1 chain: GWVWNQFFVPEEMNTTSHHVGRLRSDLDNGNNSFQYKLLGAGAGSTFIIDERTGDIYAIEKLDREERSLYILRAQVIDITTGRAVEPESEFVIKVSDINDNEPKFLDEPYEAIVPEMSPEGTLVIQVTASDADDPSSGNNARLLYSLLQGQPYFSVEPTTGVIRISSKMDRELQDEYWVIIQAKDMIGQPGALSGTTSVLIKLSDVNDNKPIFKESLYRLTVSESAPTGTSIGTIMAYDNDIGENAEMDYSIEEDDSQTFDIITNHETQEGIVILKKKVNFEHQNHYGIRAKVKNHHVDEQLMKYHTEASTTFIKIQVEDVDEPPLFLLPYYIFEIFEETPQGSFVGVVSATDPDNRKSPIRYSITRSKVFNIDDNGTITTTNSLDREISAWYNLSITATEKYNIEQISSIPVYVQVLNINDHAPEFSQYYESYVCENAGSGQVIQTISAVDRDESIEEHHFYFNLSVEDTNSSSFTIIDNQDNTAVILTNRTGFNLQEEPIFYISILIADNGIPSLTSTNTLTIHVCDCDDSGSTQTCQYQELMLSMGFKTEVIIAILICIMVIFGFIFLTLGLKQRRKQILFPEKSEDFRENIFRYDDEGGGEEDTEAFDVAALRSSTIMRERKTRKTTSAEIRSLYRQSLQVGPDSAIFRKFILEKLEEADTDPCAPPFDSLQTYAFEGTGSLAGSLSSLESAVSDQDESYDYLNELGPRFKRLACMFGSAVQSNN

T2: caCDH19(1-43)::FLAG::caCDH19(44-87)::rhCDH19(89-114)::caCDH19(115-770) (construct T, rh EC1b) (rhesus macaque/dog chimera)
T2 construct: leader left out
T2 chain: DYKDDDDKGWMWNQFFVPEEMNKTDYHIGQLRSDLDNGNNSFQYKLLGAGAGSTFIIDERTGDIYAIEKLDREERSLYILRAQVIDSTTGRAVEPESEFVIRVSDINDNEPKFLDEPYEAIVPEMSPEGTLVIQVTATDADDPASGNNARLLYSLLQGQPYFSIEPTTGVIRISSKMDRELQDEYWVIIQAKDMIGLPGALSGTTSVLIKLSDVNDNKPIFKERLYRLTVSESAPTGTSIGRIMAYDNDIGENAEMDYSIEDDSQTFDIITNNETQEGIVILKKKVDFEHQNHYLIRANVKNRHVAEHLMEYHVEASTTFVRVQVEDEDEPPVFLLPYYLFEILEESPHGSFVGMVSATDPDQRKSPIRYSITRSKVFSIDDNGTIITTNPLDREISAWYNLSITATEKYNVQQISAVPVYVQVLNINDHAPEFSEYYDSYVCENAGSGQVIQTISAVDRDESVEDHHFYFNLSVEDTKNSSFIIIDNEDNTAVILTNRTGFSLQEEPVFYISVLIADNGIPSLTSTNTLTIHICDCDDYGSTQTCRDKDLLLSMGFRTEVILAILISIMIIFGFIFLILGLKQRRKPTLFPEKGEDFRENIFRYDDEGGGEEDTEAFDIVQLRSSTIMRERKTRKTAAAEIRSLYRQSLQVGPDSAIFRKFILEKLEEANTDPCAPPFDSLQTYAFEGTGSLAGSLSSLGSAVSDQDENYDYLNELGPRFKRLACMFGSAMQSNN

T3: muCDH19(44-770) with Flag tag (construct I, Mu EC1-5) (mouse)
T3 construct: leader left out; the entry starts at residue 44; also called Mo EC1-5; mouse Cadherin19
T3 chain: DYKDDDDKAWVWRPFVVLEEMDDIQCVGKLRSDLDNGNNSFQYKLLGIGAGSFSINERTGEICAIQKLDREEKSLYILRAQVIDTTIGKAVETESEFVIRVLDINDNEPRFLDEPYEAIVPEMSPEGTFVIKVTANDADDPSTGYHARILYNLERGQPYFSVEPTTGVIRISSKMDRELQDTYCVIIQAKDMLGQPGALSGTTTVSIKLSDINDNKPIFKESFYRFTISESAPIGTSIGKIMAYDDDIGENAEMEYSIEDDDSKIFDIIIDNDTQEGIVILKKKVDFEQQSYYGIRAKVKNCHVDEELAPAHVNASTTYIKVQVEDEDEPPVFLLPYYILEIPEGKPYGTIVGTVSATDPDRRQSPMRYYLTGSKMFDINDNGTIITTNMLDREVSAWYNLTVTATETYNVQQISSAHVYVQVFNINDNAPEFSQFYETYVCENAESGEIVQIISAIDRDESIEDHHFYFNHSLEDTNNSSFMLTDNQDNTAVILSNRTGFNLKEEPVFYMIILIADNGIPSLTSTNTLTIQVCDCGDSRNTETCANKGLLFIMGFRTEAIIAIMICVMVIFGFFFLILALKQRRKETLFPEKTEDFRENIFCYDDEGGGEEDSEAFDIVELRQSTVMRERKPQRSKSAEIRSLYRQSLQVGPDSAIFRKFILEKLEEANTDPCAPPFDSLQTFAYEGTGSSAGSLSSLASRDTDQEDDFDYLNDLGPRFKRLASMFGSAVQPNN

B1: anti-CDH19 antibody 4A2 (Ab ID 13592) (antibody, human IgG1, kappa, V domains shown)
VH: QVQLQESGPGLVKPSQTLSLTCTVSGGSISSSGYYWSWIRQHPGKGLEWIGYIYYTGSAYYNPSLKSRVTISVDTSKNQFSLKLSSVTAADTAVYYCARDGSSGWYFQYWGQGTLVTVSS
VL: EIVLTQSPGTLSLSPGERATLSCRASRNISSSYLAWYQQKPGQAPRLLIYGPSSRATGIPDRFSGSGSGTDFTLTISRLEPEDFTVYYCQQYGSSFTFGPGTKVDIKR
notes: Bin 4
B2: hu anti-<huCDH19> 4A9 (Ab ID 13589) (antibody, human IgG1, lambda, V domains shown)
VH: QVQLQESGPGLVKPSETLSLTCTVSGGSISGYYWSWIRQPPGKGLEWFAYFSYSGSTNYNPSLKSRVTLSVDTSKNQFSLKLSSVTAADTAVYYCARNWAFHFDFWGQGTLVTVSS
VL: QSVLTQPPSVSGAPGQRVTISCTGSSSNIGTGYAVHWYQQFPGTAPKLLIYGNNNRPSGVPDRFSGSKSGTSASLAITGLQAEDEADYYCQSYDSRLSGWVFGGGTKLTVLG
notes: huIgG1z / huLLC-C1; Bin 1
B3: hu anti-<huCDH19> 26D1.1 (Ab ID 13882) (antibody, human IgG1, lambda, V domains shown)
VH: QVQLVQSGAEVKKPGASVKVSCKASRYTFTSYYMSWVRQAPGQGLEWMGIIHPSGGDTTYAQKFQGRVTMTGDTSTSTVYMELSSLRSEDTAVYYCARGGIKLWLHFDYWGQGTLVTVSS
VL: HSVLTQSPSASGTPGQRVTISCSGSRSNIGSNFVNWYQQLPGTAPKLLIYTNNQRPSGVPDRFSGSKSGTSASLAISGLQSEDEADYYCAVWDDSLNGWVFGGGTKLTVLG
notes: huIgG1z / huLLC-C2; Bin 2
B4: anti-CDH19 antibody 2G6 (Ab ID 13588) (antibody, human IgG1, lambda, V domains shown)
VH: QVQLVESGGGVVQPGRSLRLSCAASGFTFSSYGMHWVRQAPGKGLEWVAFIWYDGSNKYYADSVKDRFTISRDNSKNTLYLQMKSLRAEDTAVYYCARRAGIIGTIGYYYGMDVWGQGTTVTVSS
VL: SYELTQPPSVSVSPGQTASITCSGDRLGEKYTCWYQQRPGQSPLLVIYQDTKRPSGIPERFSGSNSGNTATLTISGTQAMDEADYYCQAWDSSTVVFGGGTKLTVLG
notes: Bin 4
B5: hu anti-<huCDH19> 23A10.3 (1-474)(L92Q) VH::huIgG1z + 23A10.3 (1-231)(C42S) VL::huLLC-C2 (Ab ID 14077) (antibody, V domains shown)
VH: B4 VH with S31R, M34I, F50V, D66G, K84N, T91S, I103P, I106T
VL: B4 VL with T32V, C33S, R38K, L44I, T51N, R53W
notes: Engineered variant of 23A10; the entries already carry the changes; Bin 4
B6: hu anti-<huCDH19> 4B10 (Ab ID 13590) (antibody, V domains shown)
VH: QVQLVESGGGVVQPGRSLRLSCAASGFTFSSYDMHWVRQAPGKGLEWVAVISYDGTNEYYADSVKGRFTISRDTSKNTLYLQMNSLRAEDTAVYYCARERYFDWSFDYWGQGTLVSVSS
VL: EIVLTQSPGTLSLSPGERATLSCRASQSVSNTYLAWYHQRPGQAPRLLIYGASSRATGIPDRFSGSGSGTDFALTISSLEPEDFAVYYCQQYSNSWTFGQGTKVEIKR
notes: huIgG1z / huKLC; Bin 4

Key:
Cyno Cadherin-19 = target: T1, Cyno Cadherin-19; assay: FACS, recombinant cynomologous CDH-19
[1] = target: T2, caCDH19(1-43)::FLAG::caCDH19(44-87)::rhC …; assay: flow cytometry, transfected 293T cells, 2 mM CaCl2
Procedure: (§1) The following binding assay was completed in presence of 2 mM CaCl₂). […] Cells were then washed one time and the amount of cell associated Alexa647-labelled Ab was quantitated by flow cytometry. The experiments included mock transfected controls.

[2] = target: T4, rhCDH19(1-43)::FLAG::rhCDH19(44-141)::caCDH19(141-770) (construct R, rh EC1) (rhesus macaque/dog chimera); assay: flow cytometry, transfected 293T cells, 2 mM CaCl2;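 note: antibody binding read out as cell-bound Alexa647 label signal, with mock-transfected cells as controls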
T4 construct: leader (1-43 of the entry) left out
Procedure: as §1

[3] = target: T3, muCDH19(44-770) with Flag tag …; assay: flow cytometry, transfected 293T cells, 2 mM CaCl2
Procedure: as §1

[4] = target: T5, huCDH19(44-249)::muCDH19(248-770) with Flag tag (construct C, Hu EC1-2) (human/mouse chimera); assay: flow cytometry, transfected 293T cells
T5 construct: leader left out; the entry starts at residue 44; also called C137896
Source text: (§2) The experiment included assaying the anti-CDH19 antibodies against mouse Cadherin19 to determine suitability for binning on these human/mouse chimeras.

[5] = target: T6, huCDH19(44-141)::muCDH19(140-770) with Flag tag (construct B, Hu EC1) (human/mouse chimera); assay: flow cytometry, transfected 293T cells
T6 construct: leader left out; the entry starts at residue 44; also called C137897
Source text: as §2

Row | Binder | binding result (Cyno Cadherin-19) | binding result [1] | binding result [2] | binding result [3] | binding result [4] | binding result [5]
1 | B1 | binds | – | – | – | – | –
2 | B2 | binds | no binding (tested: 5 ug/ml) | binds | no binding (tested: 5 ug/ml) | binds | binds
3 | B3 | binds | binds | binds | no binding (tested: 5 ug/ml) | binds | binds
4 | B4 | binds | – | – | – | binds | binds
5 | B5 | – | – | – | binds | – | –
6 | B6 | binds | – | – | no binding (tested: 5 ug/ml) | – | –
